According to patent US20190352359A1 (IMMATICS BIOTECHNOLOGIES, published 2019):

Biological target: T1, HLA-A*24
T1 construct: Monomers captured on streptavidin plates; also called peptide-receptive MHC molecules; MHC complexes
Experiment: UV peptide-exchange ELISA (anti-b2m); yield grade +++ = >50
From the text: (§1) Candidate peptides for T cell based therapies according to the present invention were further tested for their MHC binding capacity (affinity). The individual peptide-MHC complexes were produced by UV-ligand exchange, where a UV-sensitive peptide is cleaved upon UV-irradiation, and exchanged with the peptide of interest as analyzed. Only peptide candidates that can effectively bind and stabilize the peptide-receptive MHC molecules prevent dissociation of the MHC complexes. To determine the yield of the exchange reaction, an ELISA was performed based on the detection of the light chain (p2m) of stabilized MHC complexes. The assay was performed as generally described in Rodenko et al. (Rodenko et al., 2006)
(§2) 96 well MAXISorp plates (NUNC) were coated over night with 2 ug/ml streptavidin in PBS at room temperature, washed 4× and blocked for 1 h at 37° C. in 2% BSA containing blocking buffer. Refolded HLA-A*02:01/MLA-001 monomers served as standards, covering the range of 15-500 ng/ml. Peptide-MHC monomers of the UV-exchange reaction were diluted 100-fold in blocking buffer. Samples were incubated for 1 h at 37° C., washed four times, incubated with 2 ug/ml HRP conjugated anti-β2m for 1h at 37° C., washed again and detected with TMB solution that is stopped with […]. Absorption was measured at 450 nm. Candidate peptides that show a high exchange yield (preferably higher than 50%, most preferred higher than 75%) are generally preferred for a generation and production of antibodies or fragments thereof, and/or T cell receptors or fragments thereof, as they show sufficient avidity to the MHC molecules and prevent dissociation of the MHC complexes.

Binder | peptide exchange yield [%]
KYKQHFPEI (also called KYKQHFPEI) [MAGEB17-001] | 50 to 75
SYLKDPMIV (also called SYLKDPMIV) [DDX53-001] | 50 to 75
FLPALYSLL (also called FLPALYSLL) [CXCR3-001] | 50 to 75
ISMSATEFLL (also called ISMSATEFLL) [CYP1A1-001] | 50 to 75
KQMQEFFGL (also called KQMQEFFGL) [MMP1-010] | 50 to 75
LSCTATPLF (also called LSCTATPLF) [KHDC1L-001] | 50 to 75
IYIIMQSCW (also called IYIIMQSCW) [FLT3-011] | 50 to 75
DIYVTGGHLF (also called DIYVTGGHLF) [KLHDC7B-005] | 50 to 75
NAFEAPLTF (also called NAFEAPLTF) [BRCA2-004] | 50 to 75
RIFTARLYF (also called RIFTARLYF) [AICD-001] | 50 to 75
RSMEHPGKLLF (also called RSMEHPGKLLF) [ESR1-010] | 50 to 75
LFDHGGTVFF (also called LFDHGGTVFF) [ANO7-003] | 50 to 75
VGGNVTSNF (also called VGGNVTSNF) [CT45-004] | 50 to 75
VGGNVTSSF (also called VGGNVTSSF) [CT45-005] | 50 to 75
SLWREVVTF (also called SLWREVVTF) [CEP250-004] | 50 to 75
LFQRVSSVSF (also called LFQRVSSVSF) [HMCN1-010] | 50 to 75
TDWSPPPVEF (also called TDWSPPPVEF) [FAM178B-001] | 50 to 75
KTKRWLWDF (also called KTKRWLWDF) [COL11A1-004] | 50 to 75
VYEHNHVSL (also called VYEHNHVSL) [BTBD16-006] | 50 to 75
MSYSCGLPSL (also called MSYSCGLPSL) [KRT33A-001] | 50 to 75
KYYIATMAL (also called KYYIATMAL) [CHRNA9-003] | 50 to 75
EAYSYPPATI (also called EAYSYPPATI) [HMCN1-006] | 50 to 75
MYNMVPFF (also called MYNMVPFF) [DCT-002] | 50 to 75
VLAPVSGQF (also called VLAPVSGQF) [FCRL5-009] | 50 to 75
YIPMSVMLF (also called YIPMSVMLF) [HTR7-002] | 50 to 75
YFDENIQKF (also called YFDENIQKF) [HEPHL-006] | 50 to 75
YYIGIVEEY (also called YYIGIVEEY) [HEPHL-007] | 50 to 75
IYPDSIQEL (also called IYPDSIQEL) [LOC-019] | 50 to 75

The remaining lines, values ahead:

peptide exchange yield [%] | Binder
50 to 75 | FIPVAWLIF (also called FIPVAWLIF) [MRGPRX4-001]
50 to 75 | VYSSFVFNLF (also called VYSSFVFNLF) [NLRP4-007]
50 to 75 | RLGEFVLLF (also called RLGEFVLLF) [TGM6-001]
50 to 75 | YSLLDPAQF (also called YSLLDPAQF) [SOX14-002]
50 to 75 | MMVTVVALF (also called MMVTVVALF) [QRFPR-003]
50 to 75 | EYSLPVLTF (also called EYSLPVLTF) [PTP-037]
50 to 75 | RYLIIKYPF (also called RYLIIKYPF) [SUCN-003]
50 to 75 | SYQEAIQQL (also called SYQEAIQQL) [NEFH-003]
50 to 75 | LHLYCLNTF (also called LHLYCLNTF) [PGR-003]
50 to 75 | IWAERIMF (also called IWAERIMF) [TDRD1-001]
50 to 75 | RILTEFELL (also called RILTEFELL) [TRIM31-001]
50 to 75 | QYPEFSIEL (also called QYPEFSIEL) [TGM4-001]
50 to 75 | FYIVTRPLAF (also called FYIVTRPLAF) [SUCN-002]
50 to 75 | RYKMLIPF (also called RYKMLIPF) [NLRP2-010]
50 to 75 | MDQNQVVWTF (also called MDQNQVVWTF) [ROS-008]
50 to 75 | QHMLPFWTDL (also called QHMLPFWTDL) [NLRP2-009]
50 to 75 | KALMSAFYTF (also called KALMSAFYTF) [MMP11-022]
50 to 75 | KDLMKAYLF (also called KDLMKAYLF) [TXNDC16-006]
50 to 75 | VCWNPFNNTF (also called VCWNPFNNTF) [RNF183-001]
50 to 75 | QYAAAITNGL (also called QYAAAITNGL) [SALL3-002]
50 to 75 | KVWSDVTPLTF (also called KVWSDVTPLTF) [MMP11-023]
50 to 75 | MHPGVLAAFLF (also called MHPGVLAAFLF) [MMP13-005]
50 to 75 | GYFLAQYLM (also called GYFLAQYLM) [TRPM8-008]
50 to 75 | VYSSFVFNL (also called VYSSFVFNL) [NLRP4-006]
50 to 75 | SYVLQIVAI (also called SYVLQIVAI) [PTP-041]
50 to 75 | FYPDEDDFYF (also called FYPDEDDFYF) [MYCN-002]
50 to 75 | NYFLDPVTI (also called NYFLDPVTI) [TRI-005]
50 to 75 | IHGIKFHYF (also called IHGIKFHYF) [NMUR2-004]
50 to 75 | IYFNHRCF (also called IYFNHRCF) [SFMBT1-001]

Biological target: T1, HLA-A*24
Experiment: UV peptide-exchange ELISA (anti-b2m); yield grade + = >10%
From the text: as §1, §2

Binder | peptide exchange yield [%]
VYFVQYKIM (also called VYFVQYKIM) [IL22RA2-001] | 10 to 20
KVVSGFYYI (also called KVVSGFYYI) [CCR8-003] | 10 to 20
TYFFVANKY (also called TYFFVANKY) [MMP1-011] | 10 to 20
YQVAKGMEF (also called YQVAKGMEF) [FLT3-014] | 10 to 20
IYPHGVTFSP (also called IYPHGVTFSP) [F5-004] | 10 to 20
RRLWAYVTI (also called RRLWAYVTI) [ITIH6-002] | 10 to 20

Next, values leading:

peptide exchange yield [%] | Binder
10 to 20 | MMALWSLLHL (also called MMALWSLLHL) [ZAC-001]
10 to 20 | KDQPQVPCVF (also called KDQPQVPCVF) [NAT1-001]
10 to 20 | MFQEMLQRL (also called MFQEMLQRL) [TRIML2-001]
